Data taken from patent US9932404B2.

Molecular target: full length human TLR3 (human)

With “TLR3.7 (eBiosciences, cat no 14-9039) (antibody)” the % inhibition of poly(I:C)-induced NF-κB luciferase reporter was 8%.
